Test results reported in the supplement of paper PMC12764529.
± gives the half width of the 95% confidence interval.

Key:
[1] = folding stability dG unfold (combined trypsin and chymotrypsin); higher = more stable
Summary of the method: (§1)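 How resistant each design was to proteolysis was captured as K50, inferred by Bayesian fitting of sequencing counts. Unfolding free energy was then derived relative to a sequence-predicted unfolded-state K50 and a shared folded-state K50, per protease or combined. Digestion used trypsin and chymotrypsin at 11 threefold-diluted concentrations plus a no-protease condition, on mini-proteins under 80 residues without cysteine in a PA-tagged cDNA display construct. Designs were kept only when AlphaFold2 dimer inter-PAE was above 15.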

[2] = folding stability dG unfold from chymotrypsin proteolysis; higher = more stable
Summary of the method: as §1

[3] = folding stability dG unfold from trypsin proteolysis; higher = more stable
Summary of the method: as §1

Sequence | folding stability dG unfold [1] [kcal/mol] | folding stability dG unfold [2] [kcal/mol] | folding stability dG unfold [3] [kcal/mol]
SENWEPEPITFPDGITIWVMPDYGMIDIIDPDKGTFEMFMIRVDPNGKPEINPLTFKLDPPNGKIKDITPSA [r9_122_TrROS] | 0.49 ± 0.26 | 0.572 ± 0.91 | 0.657 ± 0.2
SEPLTPEEVEKFAEWIAKELNEEHGKEVKVEVEYHPDDGYFRAEIEIPNGRRIEITFNPEFGQLDIEVEDSA [r9_9_TrROS] | 1.71 ± 0.27 | 2.36 ± 0.062 | 1.31 ± 0.18
SEPVPVKIEISTSVDSNGNPSVTITVYNEEKVYTNPLNGATILSVDPNKQYIVIENPALGTKLTLSYTLISA [r9_1186_JUSTAS] | 2.49 ± 0.093 | 2.75 ± 0.048 | 2.07 ± 0.086
SEVEVTVTVTLTRRLPDGREREVTVTLTLRLEFDPELSEEELESPELRKRLEELRREALERARRLAEELASA [r9_237_TrROS_Hall] | > 6 | 6.52 ± 0.22 | 4.64 ± 0.18
SFKLEKTITLPDYVLKIEVTFKPKPDKTVIAPIKVTIYDPVKKKPYTKELTKPFPPEDPLKFVEEALKEIFS [r1_171_TrMRF] | 0.438 ± 0.33 | 0.235 ± 0.42 | 0.425 ± 0.1
SFKLPPGQEIKVKIFILFVDPGDGRMYFIKIEYEITIKPDDDGNLDLDIEPTNIEVVGPMPADEAKEFFKSA [r9_423_TrROS] | 2.34 ± 0.25 | 2.54 ± 0.16 | 2.47 ± 0.086
SFSISTETKVVPQDGRLLIEYEFTVPNAPPGDTAALTLSVSHPSGASTSTSQTADPAGTYTAKFVVDIPLTS [r1_161_JUSTAS] | 0.527 ± 0.053 | 0.471 ± 0.09 | 0.437 ± 0.061
SGEPVIVKITFPDGTVLEIEFEGTPEEVKEAVEEEIKEYAKKHGLKPGEFKVEVIKAGDKTKETYTIKVESA [r9_1193_TrMRF] | 1.87 ± 0.15 | 2.03 ± 0.071 | 1.5 ± 0.098
SGFEVERVEVEADLDKPTVARFLLVNPDGQPIVALDPVVRLGEEALVLSVYRNPVDGELRVTARRIRLDGSA [r9_269_TrMRF] | 1.21 ± 0.043 | 1.24 ± 0.11 | 1.1 ± 0.068
SGFTVEVEVEYYPETGVLEVTVTTDGSSEQLIRDVADFIKEAGLDFVIESVEVEESGEVTTITLKLYVPPSA [r9_164_TrMRF] | 3.78 ± 0.21 | 4 ± 0.12 | 3.03 ± 0.18
SGGMVNATVTVTLPLPDLPPVTLTVTITEEATPEEAEARKKALAAELEAELRAAAADAALPAPALTSALLSA [r9_626_JUSTAS] | 1.24 ± 0.29 | 0.156 ± 0.43 | 1.85 ± 0.032
SGKVVATVPLPDGTVITVEVSPDNTVRVTVVRYRLVPNSTAPAVEVRTYTFPLPPGNPPSIQDVLDRVLSSA [r9_614_TrMRF] | 4.41 ± 0.098 | 4.53 ± 0.053 | 4.05 ± 0.14
SGLKDVISVTVTQSPTAGEVPVVTAYSPDGSRTFNLAPEETEAFLKALREAGYNVVVTDRVFVPVPAELGSA [r9_607_JUSTAS] | 1.56 ± 0.052 | 1.38 ± 0.052 | 1.676 ± 0.016
SGMDSNPKTTTENISFEEALKRLPSSVTSVEPRGESVVIKQSSPDSLTVVTMTRDPSSDSAPATTTTYLSSA [r9_604_JUSTAS] | 0.341 ± 0.17 | 0.181 ± 0.36 | 0.304 ± 0.087
SGNGEVEVEINIRIVIEPWDPNGEPDPVPIAEIPIKAEYDANDPEAVDFAVLDILDLLAPENPGYRIHIESA [r9_1112_TrROS] | 0.731 ± 0.062 | 0.379 ± 0.047 | 1.11 ± 0.067
SGPGEEEVAKRAAAEAAPTPDVREVTEEVEIVVPGTGEKVVVPVTALRLPDGTIVPLPEEEIRAIAEKLLSA [r9_1056_JUSTAS] | 0.771 ± 0.13 | 1.07 ± 0.058 | 0.341 ± 0.098
SGPTSITFPDGSSASISLSPDSFTITITLPGSSATSTYDPATGTTTITLTFSSSTVTLTLDPATGTLTVGSA [r9_207_JUSTAS] | 4.89 ± 0.11 | 5.01 ± 0.083 | 3.86 ± 0.11
SGSFKLLKVEEHPDNPSITAVLTFPDGSTATLRFRPDGSWTGYVESTGKPFTAVSGENELKLFVPEELTLSA [r9_233_TrMRF] | 0.523 ± 0.095 | 0.319 ± 0.14 | 0.67 ± 0.059
SGSSLLSETTEFVELPDDTFATVSTSTYYIPGSGEIVTKTTVTIYPPTGPPVTTTYTSTTTPEGVLVTESSA [r9_856_JUSTAS] | 3.31 ± 0.2 | 3.59 ± 0.15 | 2.38 ± 0.13
SGSTHTVRPPGGLTLTFTFSTDGTTEEAAQALKEALAAALPPDVTVTFDRIDPDKPVTPDEAATVDATVVSA [r9_178_JUSTAS] | 1.21 ± 0.17 | 1.69 ± 0.11 | 0.482 ± 0.055
SGVSVKVTVEGNTITIEVSADAKIKIEVTFPTKKATYEVEVEPGKPVTFTIPLPKDVPKDAFIDKIDIGGSA [r9_1152_TrMRF] | 3.03 ± 0.17 | 3.56 ± 0.12 | 1.98 ± 0.11

Sequence | folding stability dG unfold [1] [kcal/mol] | folding stability dG unfold [2] [kcal/mol] | folding stability dG unfold [3] [kcal/mol]
SIEEIADTLQKLGLNVNIDDIELEPNPDGRFRIQVQVSGEPIRQVEVPPPPPPPPEEEVRDPDGKEHKVRSA [r9_442_TrROS] | -0.404 ± 0.33 | -0.281 ± 0.26 | -0.188 ± 0.086
SIEIYEGPEEAEEMAEENGTPVIPIPPDMNLSEILKQLKNQPGLPPDQKIVIVIQWEPGQWYVIRIPIKPSA [r9_314_TrROS] | 2.53 ± 0.091 | 2.734 ± 0.022 | 2.05 ± 0.059
SIIRSPNGYWIVITVKVPEGAKPFPPGFEVQRDPEKGTLTIIMPMPPDDIRRLAEHPGVEIEKIEFIPWDSA [r9_827_TrROS] | 1.74 ± 0.069 | 2.05 ± 0.021 | 1.14 ± 0.032
SIITINFHPGMFHISIYKDGGEKTIPMPWSEIKELLKKGVDKVEIHSPDPGFMNEFQKLVQKEGIPIEIHSA [r9_810_TrROS] | 1.9 ± 0.25 | 2.12 ± 0.06 | 1.42 ± 0.095
SIKIEPHPDGFFMLRFPDNGHKIMIRVDPEKGKVKIMFETPGQPVEQEIDPDEGTITIEFPNNKIEIPIKSA [r9_541_TrROS] | 1.56 ± 0.23 | 1.14 ± 0.24 | 2.42 ± 0.1
SIKIRKEKTPNGYYEITFEFPFPDGWPMTIEANVQVDPENGKVKVDIKIEDPNLPPEFKEFIENFEFKVPSA [r9_715_TrROS] | 2.52 ± 0.23 | 2.97 ± 0.086 | 1.75 ± 0.079
SISITLPDGTKTVSQSFNPEGNTITYTMEAPGKKITITLTEKVVGGSKEISVKITTDPVPLTPEEVAALKAS [r1_154_JUSTAS] | 1.86 ± 0.12 | 1.94 ± 0.085 | 2.03 ± 0.13
SITIKIPLKPGYPYALRIHFYNPNGKPREMDMNVTRKPDGEVEIPIKIPDKDIPPGQDIRIQSIEIYPMKSA [r9_359_TrROS] | 1.99 ± 0.26 | 2.59 ± 0.1 | 1.5 ± 0.038
SITITRDPDYYTLRIPPGMDSVEEVQDFLKELGFKLPPGVKDIQVEEVDKENNQVTITIQLDDPEAIQDLSA [r9_820_TrROS] | 0.798 ± 0.2 | 0.836 ± 0.28 | 0.601 ± 0.085
SIYIKIPIDEIKPEWNKNGMITLEIKYPNGKTIKFEFPPGFQIDNIEVIKPGWIMFEFEIVPPADPEDAKSA [r9_501_TrROS] | 2.2 ± 0.16 | 3.06 ± 0.082 | 1.76 ± 0.12
SKAEIVEIKIEKVEKDGKKYYKVKIKVKTKDGKIKEIEITFPEGMSEEEIKKKIEELAKELGIEKVEIKPSA [r9_1203_TrROS_Hall] | 4.53 ± 0.67 | 4.7 ± 0.24 | 3.76 ± 0.44
SKEKVKVEIKLTVTKVFPPEELEKDPKTGKYRNKDTGKWFEPPKVVVKELTLTIEMSKEEVEKLLKELLKSA [r9_165_TrROS_Hall] | 2.29 ± 0.095 | 2.63 ± 0.048 | 1.52 ± 0.059
SKETETVEMEITITVNGKKVKIKATFTRNKDGSITMTITYEDGKKIEITFTNGKIVIVDKKTKKIIAEIPSA [r9_970_TrROS_Hall] | 4.14 ± 0.25 | 4.41 ± 0.15 | 2.54 ± 0.19
SKFKIDEIKYEPNKPYTIKVKLPDGTTIEIKYDPNKPNEVKIILTHPDGSKKEFTLPYNYPININLKVNPSA [r9_875_TrMRF] | 1.95 ± 0.083 | 2.05 ± 0.081 | 1.59 ± 0.031
SKGKKVLVIPATLPEAEEIAKALGLPPSLFPSSKKLVDALKEAFPENVVVVVAPAKPVTEEELKALAEGKSA [r9_74_TrMRF] | 0.678 ± 0.081 | 0.93 ± 0.039 | 0.19 ± 0.037
SKIEIDEFPWERNPDDGYATIQIKIKVRDPDKKKKDIPHEFPPGSSPDQFWDQIENRAQNNGIKDVEISWSA [r9_1203_TrROS] | 0.032 ± 0.13 | -0.0831 ± 0.11 | 0.0973 ± 0.058
SKIKIEEVPEGEEVEIEIPETKKTITIVKKDDYLIIKVKDKKTGEEKEIVIKVPPENIEEVLKKIEELLKSA [r9_982_TrROS_Hall] | 2.11 ± 0.4 | 2.34 ± 0.25 | 2.01 ± 0.1
SKIRIEVPGETIEITVPPGATVEFDEETGEITITLPDGSKRTIRLPPNAKIEVVDGEIRITIRLPPPPEPSA [r9_653_TrROS_Hall] | 2.93 ± 0.21 | 2.78 ± 0.2 | 3.15 ± 0.12
SKKIIIKITITDPKNKKKIKITEIIFDKKTKKIIIKIEVENVKNKEKLKSKEDVLEAIKKLLEKLGFKPISA [r9_258_TrROS_Hall] | 2.25 ± 0.47 | 2.47 ± 0.35 | 1.81 ± 0.23
SKKKIEIEVIDLKTGKTETIEADTLEEALEEIKKNAPPGSTVIVRIKLPDGSVLEITLEIKPEKVTEKEKSA [r9_482_TrROS_Hall] | 1.21 ± 0.22 | 1.37 ± 0.087 | 0.956 ± 0.074
SKKKKEKKKKEKEKKEKKKVIVLSEEELLEKVRELAKKGKKVKIVVKTPDKELAERLAKEAEELGVEVEVSA [r9_468_TrROS_Hall] | 1.31 ± 0.13 | 1.32 ± 0.027 | 1.45 ± 0.059
